In article PMC10106851, “Wheat yellow mosaic virus NIb targets TaVTC2 to elicit broad‐spectrum pathogen resistance in wheat” (Plant Biotechnology Journal, 2023) one finds Kd, Ka and Km data, which are given here for three molecules.

One data set addresses T1, TaVTC2 (Triticum aestivum, UniProt A0A650C200).
T1 construct: gene GGP2-D; full-length CDS; recombinant GST fusion (TaVTC2-GST) from E. coli BL21
T1 sequence (A0A650C200 1-431): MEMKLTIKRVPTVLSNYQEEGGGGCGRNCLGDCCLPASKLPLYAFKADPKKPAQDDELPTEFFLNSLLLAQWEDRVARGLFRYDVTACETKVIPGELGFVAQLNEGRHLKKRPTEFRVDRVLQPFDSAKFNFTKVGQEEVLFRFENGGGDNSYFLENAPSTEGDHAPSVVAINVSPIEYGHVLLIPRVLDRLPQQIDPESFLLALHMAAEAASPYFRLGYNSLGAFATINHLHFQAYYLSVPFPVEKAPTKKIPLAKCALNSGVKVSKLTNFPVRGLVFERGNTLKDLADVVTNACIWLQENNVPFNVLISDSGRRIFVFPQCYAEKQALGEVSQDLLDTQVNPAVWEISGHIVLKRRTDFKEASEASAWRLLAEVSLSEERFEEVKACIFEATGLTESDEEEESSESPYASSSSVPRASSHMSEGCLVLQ
In words: microscale thermophoresis. The class given is binding.

Data set [1] has as its target TaVTC2-GST (wheat (Triticum aestivum)). In words: ITC; ITC 200 Micro Calorimeter, 20 °C; 10 mM Tris-HCl, 150 mM sodium chloride, pH 7.5; one-set-of-sites model; which protein was in the syringe is not given. (ITC needs no label: the signal is the heat of the interaction.)
The target in the next data set is T2, NIb-His (wheat yellow mosaic virus (WYMV)).
T2 chain: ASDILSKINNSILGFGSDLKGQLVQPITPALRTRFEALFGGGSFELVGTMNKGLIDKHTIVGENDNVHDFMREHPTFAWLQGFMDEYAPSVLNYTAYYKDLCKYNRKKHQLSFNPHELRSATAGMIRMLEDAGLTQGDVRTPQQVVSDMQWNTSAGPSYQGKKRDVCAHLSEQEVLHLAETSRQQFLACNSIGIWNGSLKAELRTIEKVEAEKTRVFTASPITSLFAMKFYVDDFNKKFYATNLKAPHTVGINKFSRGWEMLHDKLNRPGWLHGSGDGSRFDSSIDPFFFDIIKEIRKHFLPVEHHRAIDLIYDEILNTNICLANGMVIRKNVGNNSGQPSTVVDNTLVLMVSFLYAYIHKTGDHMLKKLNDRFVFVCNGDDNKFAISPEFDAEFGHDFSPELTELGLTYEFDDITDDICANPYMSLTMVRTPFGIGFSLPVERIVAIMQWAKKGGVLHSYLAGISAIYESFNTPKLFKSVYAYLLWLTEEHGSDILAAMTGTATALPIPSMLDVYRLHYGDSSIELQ
The data set can be described thus: ITC.

Substrate in the data set “purified protein”: Nc1nc2c(ncn2[C@@H]2O[C@H](COP(=O)(O)OP(=O)(O)O[C@H]3O[C@@H](CO)[C@@H](O)[C@@H](O)[C@@H]3O)[C@@H](O)[C@H]2O)c(=O)[nH]1
In words: purified protein. The class given is biochemical, Triticum aestivum. The following applies: 5 mM K2HPO4, 2.5 mM MgCl2, 50 mM KCl, 50 mM HEPES pH 6.9, 20 °C.

By Kd is commonly meant the constant that tells how readily two partners part at equilibrium. A low value points to higher affinity. Molecule `Nc1nc2c(ncn2[C@@H]2O[C@H](COP(=O)(O)OP(=O)(O)O[C@H]3O[C@@H](CO)[C@@H](O)[C@@H](O)[C@@H]3O)[C@@H](O)[C@H]2O)c(=O)[nH]1` [GDP-L-galactose] showed a Kd at TaVTC2 of 2.7 µM.

In the case of NIb-His (natural protein), the Ka in data set [1] came out at 167000 M⁻¹.

B1: TaVTC2-GST (enzyme)
chain: MEMKLTIKRVPTVLSNYQEEGGGGCGRNCLGDCCLPASKLPLYAFKADPKKPAQDDELPTEFFLNSLLLAQWEDRVARGLFRYDVTACETKVIPGELGFVAQLNEGRHLKKRPTEFRVDRVLQPFDSAKFNFTKVGQEEVLFRFENGGGDNSYFLENAPSTEGDHAPSVVAINVSPIEYGHVLLIPRVLDRLPQQIDPESFLLALHMAAEAASPYFRLGYNSLGAFATINHLHFQAYYLSVPFPVEKAPTKKIPLAKCALNSGVKVSKLTNFPVRGLVFERGNTLKDLADVVTNACIWLQENNVPFNVLISDSGRRIFVFPQCYAEKQALGEVSQDLLDTQVNPAVWEISGHIVLKRRTDFKEASEASAWRLLAEVSLSEERFEEVKACIFEATGLTESDEEEESSESPYASSSSVPRASSHMSEGCLVLQ
In general, Km refers to the concentration of substrate that gives half-maximal velocity. In the data set with NIb-His, B1 registered a Kd of 5.98 µM. In “purified protein”, the Km came to 78 ± 22.9 µM.
